Measurements published in article PMC6391071, “Mechanisms of opening and closing of the bacterial replicative helicase” (eLife, 2018).
“And” between values parts separate entries of the source, which are not always exact repeats. Identical values can stand only once.

B3: Aquifex aeolicus DnaB helicase (enzyme)
chain: LPCDESAERAVLGSMLEDPENIPLVLEYLKEEDFCIDEHKLLFRVLTNLWSEYGNKLDFVLIKDHLEKKNLLQKIPIDWLEELYEEAVSPDTLEEVCKIVKQRSAQRAIIQLGIELIHKGKENKDFHTLIEEAQSRIFSIAESATSTQFYHVKDVAEEVIELIYKFKSSDRLVTGLPSGFTELDLKTTGFHPGDLIILAARPGMGKTAFMLSIIYNLAKDEGKPSAVFSLEMSKEQLVMRLLSMMSEVPLFKIRSGSISNEDLKKLEASAIELAKYDIYLDDTPALTTTDLRIRARKLRKEKEVEFVAVDYLQLLRPPVRKSSRQEEVAEVSRNLKALAKELHIPVMALAQLSREVEKRSDKRPQLADLRESGQIEQDADLILFLHRPEYYKKKPNPEEQGIAEVIIAKQRQGPTDIVKLAFIKEYTKFANLEA
notes: Aquifex aeolicus DnaB replicative helicase; also called AA DnaB; A. aeolicus DnaB; source: E. coli Rosetta (pET24a-AA-DnaB); cells co-lysed with cells expressing AA DnaC; purified as the BC complex (65°C step, heparin sepharose, Q-sepharose, Superdex-200)

How the values were obtained:
[1] = target: T1, DnaB replicative helicase;lambda P helicase loader (Escherichia coli;bacteriophage lambda, UniProt P0ACB0;P03689 1-471;1-233, |); test: native MS; no protein-DNA complex; 450 mM ammonium acetate pH 7.5, 0.5 mM magnesium acetate, 0.01% Tween-20; 5 uM protein, protein:ssDNA 1:1.2, 30 min on ice; details: protein: recombinant;recombinant; tags: untagged;; chain copies: 6;5; single strand
[2] = target: T2, Escherichia coli DnaB helicase (Escherichia coli, UniProt P0ACB0 1-471); test: native MS; BP sample in 500 mM ammonium acetate, 0.01% Tween-20, without magnesium acetate; details: both partners purified
T2 construct: E. coli DnaB replicative helicase, full length, untagged; Hexamer; The 6BBM model holds residues 17-471 at most; chain A lacks 167-203; also called EcDnaB; E. coli DnaB; source: E. coli BL21(DE3), co-expressed with λP (pET24-DnaB-EC); purified as the BP complex (ammonium sulfate, Q-sepharose, heparin sepharose, methyl HIC)

[3] = target: T2, Escherichia coli DnaB helicase; test: native MS; co-purified complex at 5 µM, buffer-exchanged into 450 mM ammonium acetate pH 7.5, 0.5 mM magnesium acetate, 0.01% Tween-20; no ssDNA; details: both partners purified
[4] = target: T2, Escherichia coli DnaB helicase; test: native MS; BP complex at 5 µM in 450 mM ammonium acetate pH 7.5, 0.5 mM magnesium acetate, 0.01% Tween-20; incubated with the Oriλ-derived 43-mer ssDNA at 1:1.2 for 30 min on ice; details: both partners purified
[5] = target: T1, DnaB replicative helicase;lambda P …; test: native MS; B6P5 with one ssDNA, 459.5 kDa; no nucleotide bound; 450 mM ammonium acetate pH 7.5, 0.5 mM magnesium acetate, 0.01% Tween-20; 5 uM protein, protein:ssDNA 1:1.2, 30 min on ice; details: protein: recombinant;recombinant; tags: untagged;; chain copies: 6;5; single strand
[6] = target: B3; test: native MS; co-purified complex at 5 µM, buffer-exchanged into 450 mM ammonium acetate pH 7.5, 0.5 mM magnesium acetate, 0.01% Tween-20; no ssDNA; details: both partners purified
[7] = target: the molecule itself; test: as above

T2 sequence (P0ACB0 whole entry, the tested form may be a part): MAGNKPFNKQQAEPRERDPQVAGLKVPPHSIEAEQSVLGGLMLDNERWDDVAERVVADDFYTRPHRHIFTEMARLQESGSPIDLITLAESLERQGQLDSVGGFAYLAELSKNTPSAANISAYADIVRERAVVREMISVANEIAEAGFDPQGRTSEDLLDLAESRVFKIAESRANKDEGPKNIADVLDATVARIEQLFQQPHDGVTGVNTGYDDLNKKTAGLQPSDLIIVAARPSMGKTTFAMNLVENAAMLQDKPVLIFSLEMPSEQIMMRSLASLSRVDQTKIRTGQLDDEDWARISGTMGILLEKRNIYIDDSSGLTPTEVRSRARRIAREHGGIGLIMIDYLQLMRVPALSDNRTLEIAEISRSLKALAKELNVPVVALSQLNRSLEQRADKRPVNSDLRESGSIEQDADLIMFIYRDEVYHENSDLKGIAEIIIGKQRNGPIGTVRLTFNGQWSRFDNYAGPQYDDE
T1 sequence (P0ACB0 whole entry, one chain of several): as the sequence (P0ACB0 whole entry, the tested form may be a part) above

Does TTTTTTTTTTTTTTTTTTTTTTTTTTTTTTTTTTTTTTTTTTTTT (ssDNA) [T45] bind [1]?
Result: no binding

B1: bacteriophage λP helicase loader (natural protein, UniProt P03689 1-233, looked up)
chain: MKNIAAQMVNFDREQMRRIANNMPEQYDEKPQVQQVAQIINGVFSQLLATFPASLANRDQNEVNEIRRQWVLAFRENGITTMEQVNAGMRVARRQNRPFLPSPGQFVAWCREEASVTAGLPNVSELVDMVYEYCRKRGLYPDAESYPWKSNAHYWLVTNLYQNMRANALTDAELRRKAADELVHMTARINRGEAIPEPVKQLPVMGGRPLNRAQALAKIAEIKAKFGLKGASV
notes: bacteriophage λ replication protein P (helicase loader), full length, 233 residues, 26,518 Da, untagged; Five copies stand in the predominant complex with the DnaB hexamer; The 6BBM model of λP has no side chains and covers about residues 109-233; also called lambdaP; LP; source: E. coli BL21(DE3), co-expressed with DnaB (pCDFDuet-λP); purified as the BP complex (ammonium sulfate, Q-sepharose, …)
With B1 as the binder, how does the “stoichiometry N” value [2] read?
Its value is 5 λP per DnaB hexamer and 6 λP per DnaB hexamer and 4 λP per DnaB hexamer.

What about the “stoichiometry N” value [3] of the same binder?
Its value is 5 λP per DnaB hexamer and 6 λP per DnaB hexamer and 4 λP per DnaB hexamer.

What about the “stoichiometry N” value [4] of the same binder?
The value was 5 λP per DnaB hexamer.

Does TGACGAATAATCTTTTCTTTTTTCTTTTGTAATAGTGTCTTTT (ssDNA) [ori-lambda DUE 43-mer] bind [5]?
Result: binds

B2: Aquifex aeolicus DnaC helicase loader (natural protein, UniProt O67056 1-235, looked up)
chain: MQDTATCSICQGTGFVKTEDNKVRLCECRFKKRDVNRELNIPKRYWNANLDTYHPKNVSQNRALLTIRVFVHNFNPEEGKGLTFVGSPGVGKTHLAVATLKAIYEKKGIRGYFFDTKDLIFRLKHLMDEGKDTKFLKTVLNSPVLVLDDLGSERLSDWQRELISYIITYRYNNLKSTIITTNYSLQREEESSVRISADLASRLGENVVSKIYEMNELLVIKGSDLRKSKKLSTPS
notes: Aquifex aeolicus DnaC helicase loader; Six copies stand in the complex with the DnaB hexamer; also called AA DnaC; A. aeolicus DnaC; source: E. coli Rosetta (pET24a-AA-DnaC); cells co-lysed with cells expressing AA DnaB; purified as the BC complex (65°C step, heparin sepharose, Q-sepharose, Superdex-200)
For B2, which “stoichiometry N” value [6] is on record?
The value was 6 DnaC per DnaB hexamer.

Does TTTTTTTTTTTTTTTTTTTTTTTTTTTTTTTTTTT (ssDNA) [T35] bind [1]?
Result: no binding

How did the “stoichiometry N” value [7] turn out when B3 was run?
The value was 6 subunits.

Does TTTTTTTTTTTTTTTTTTTTTTTTT (ssDNA) [T25] bind [1]?
Result: no binding
